# Article PMC9482650, “Quantitative fragmentomics allow affinity mapping of interactomes” (Nature Communications, 2022)
# T1: DFNB31_2, Q9P202
# T1 sequence (Q9P202 274-371, limits assumed, looked up): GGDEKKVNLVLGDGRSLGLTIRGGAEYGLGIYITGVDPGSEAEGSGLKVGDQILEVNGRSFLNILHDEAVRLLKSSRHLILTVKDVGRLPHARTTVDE
# T2: NHERF3_1, Q5T2W1
# T2 sequence (Q5T2W1 4-100, limits assumed, looked up): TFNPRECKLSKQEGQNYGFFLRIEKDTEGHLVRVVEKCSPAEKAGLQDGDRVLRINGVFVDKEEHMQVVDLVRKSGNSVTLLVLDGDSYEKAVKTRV
# T3: HTRA4, P83105
# T3 sequence (P83105 378-476, limits assumed, looked up): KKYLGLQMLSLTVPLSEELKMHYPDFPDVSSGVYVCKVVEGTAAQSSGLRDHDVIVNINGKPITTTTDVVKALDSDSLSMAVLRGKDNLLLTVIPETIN
# T4: MPDZ_10, O75970
# T4 sequence (O75970 1624-1722, limits assumed, looked up): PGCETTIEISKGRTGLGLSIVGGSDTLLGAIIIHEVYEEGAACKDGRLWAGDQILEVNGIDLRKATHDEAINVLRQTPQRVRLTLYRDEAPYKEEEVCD
# T5: RAPGEF6, Q8TEU7
# T5 sequence (Q8TEU7 525-625, limits assumed, looked up): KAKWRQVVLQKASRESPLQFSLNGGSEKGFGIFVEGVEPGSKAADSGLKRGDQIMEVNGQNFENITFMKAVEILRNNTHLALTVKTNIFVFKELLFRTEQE
# T6: DVL3, Q92997
# T6 sequence (Q92997 244-331, limits assumed, looked up): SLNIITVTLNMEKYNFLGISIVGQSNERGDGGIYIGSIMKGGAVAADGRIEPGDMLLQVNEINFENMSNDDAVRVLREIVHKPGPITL
# T7: LIN7B, Q9HAP6
# T7 sequence (Q9HAP6 88-185, limits assumed, looked up): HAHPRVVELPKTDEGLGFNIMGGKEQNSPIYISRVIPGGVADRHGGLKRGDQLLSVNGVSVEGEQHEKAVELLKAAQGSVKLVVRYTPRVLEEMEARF
# T8: SNTA1, Q13424
# T8 sequence (Q13424 82-180, limits assumed, looked up): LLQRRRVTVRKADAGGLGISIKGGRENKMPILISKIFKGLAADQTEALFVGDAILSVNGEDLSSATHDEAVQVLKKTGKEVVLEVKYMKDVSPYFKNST
# T9: SNTG1, Q9NSN8
# T9 sequence (Q9NSN8 52-150, limits assumed, looked up): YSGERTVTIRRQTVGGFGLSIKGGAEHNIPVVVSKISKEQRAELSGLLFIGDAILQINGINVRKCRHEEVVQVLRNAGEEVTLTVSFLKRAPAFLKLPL
# T10: SNTG2, Q9NY99
# T10 sequence (Q9NY99 68-166, limits assumed, looked up): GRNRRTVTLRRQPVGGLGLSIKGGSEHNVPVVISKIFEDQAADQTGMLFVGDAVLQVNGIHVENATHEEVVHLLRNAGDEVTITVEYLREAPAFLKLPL
# T11: TIAM2, Q8IVF5
# T11 sequence (Q8IVF5 885-986, limits assumed, looked up): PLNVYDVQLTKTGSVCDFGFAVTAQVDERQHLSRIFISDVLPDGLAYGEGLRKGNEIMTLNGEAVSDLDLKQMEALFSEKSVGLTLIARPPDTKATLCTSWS
# T12: DFNB31_1, Q9P202
# T12 sequence (Q9P202 135-233, limits assumed, looked up): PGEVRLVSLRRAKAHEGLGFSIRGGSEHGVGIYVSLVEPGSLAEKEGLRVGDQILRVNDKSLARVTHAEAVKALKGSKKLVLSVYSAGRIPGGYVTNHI
# T13: DLG3_3, Q92796
# T13 sequence (Q92796 374-475, limits assumed, looked up): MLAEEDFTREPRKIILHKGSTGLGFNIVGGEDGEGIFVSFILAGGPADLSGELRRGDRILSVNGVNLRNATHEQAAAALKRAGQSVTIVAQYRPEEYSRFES
# B1: TRPM1, Q7Z4N2 (peptide)
# chain: KEKASTETEC
# Target: T1, DFNB31_2, Q9P202
# Assay: holdup assay
# Design: key: below the threshold = too weak to quantify, mostly under pKd 3.1 to 4
# Conditions: plain residues with an end cap or a label only (N-terminal biotin on a linker: ado-ado)
row,pKd,Binder
1,below the threshold,B1

# Target: T2, NHERF3_1, Q5T2W1
# Assay: holdup assay
# Design: key: below the threshold = too weak to quantify, mostly under pKd 3.1 to 4
# Conditions: plain residues with an end cap or a label only (N-terminal biotin on a linker: ado-ado)
row,pKd,Binder
1,3.64,B1

# Target: T3, HTRA4, P83105
# Assay: holdup assay
# Design: key: below the threshold = too weak to quantify, mostly under pKd 3.1 to 4
# Conditions: plain residues with an end cap or a label only (N-terminal biotin on a linker: ado-ado)
row,pKd,Binder
1,below the threshold,B1

# Target: PDLIM1, O00151
# Sequence (O00151 1-87): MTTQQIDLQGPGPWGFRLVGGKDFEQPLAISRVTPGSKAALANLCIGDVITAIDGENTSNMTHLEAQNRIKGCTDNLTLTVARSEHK
# Assay: holdup assay
# Design: key: below the threshold = too weak to quantify, mostly under pKd 3.1 to 4
# Conditions: plain residues with an end cap or a label only (N-terminal biotin on a linker: ado-ado)
row,pKd,Binder
1,below the threshold,B1

# Target: T4, MPDZ_10, O75970
# Assay: holdup assay
# Design: key: below the threshold = too weak to quantify, mostly under pKd 3.1 to 4
# Conditions: plain residues with an end cap or a label only (N-terminal biotin on a linker: ado-ado)
row,pKd,Binder
1,below the threshold,B1

# Target: T5, RAPGEF6, Q8TEU7
# Assay: holdup assay
# Design: key: below the threshold = too weak to quantify, mostly under pKd 3.1 to 4
# Conditions: plain residues with an end cap or a label only (N-terminal biotin on a linker: ado-ado)
row,pKd,Binder
1,below the threshold,B1

# Target: T6, DVL3, Q92997
# Assay: holdup assay
# Design: key: below the threshold = too weak to quantify, mostly under pKd 3.1 to 4
# Conditions: plain residues with an end cap or a label only (N-terminal biotin on a linker: ado-ado)
row,pKd,Binder
1,below the threshold,B1

# Target: NOS1, P29475
# Sequence (P29475 9-101): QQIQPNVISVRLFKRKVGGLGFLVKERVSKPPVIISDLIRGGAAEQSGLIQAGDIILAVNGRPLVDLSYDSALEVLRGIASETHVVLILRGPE
# Assay: holdup assay
# Design: key: below the threshold = too weak to quantify, mostly under pKd 3.1 to 4
# Conditions: plain residues with an end cap or a label only (N-terminal biotin on a linker: ado-ado)
row,pKd,Binder
1,below the threshold,B1

# Target: IL16_4, Q14005
# Sequence (Q14005 1229-1329): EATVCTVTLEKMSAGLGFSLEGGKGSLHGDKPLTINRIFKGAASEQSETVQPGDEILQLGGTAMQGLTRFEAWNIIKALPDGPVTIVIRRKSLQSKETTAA
# Assay: holdup assay
# Design: key: below the threshold = too weak to quantify, mostly under pKd 3.1 to 4
# Conditions: plain residues with an end cap or a label only (N-terminal biotin on a linker: ado-ado)
row,pKd,Binder
1,below the threshold,B1

# Target: T7, LIN7B, Q9HAP6
# Assay: holdup assay
# Design: key: below the threshold = too weak to quantify, mostly under pKd 3.1 to 4
# Conditions: plain residues with an end cap or a label only (N-terminal biotin on a linker: ado-ado)
row,pKd,Binder
1,3.77,B1

# Target: T8, SNTA1, Q13424
# Assay: holdup assay
# Design: key: below the threshold = too weak to quantify, mostly under pKd 3.1 to 4
# Conditions: plain residues with an end cap or a label only (N-terminal biotin on a linker: ado-ado)
row,pKd,Binder
1,3.77,B1

# Target: IL16_1, Q14005
# Sequence (Q14005 210-306): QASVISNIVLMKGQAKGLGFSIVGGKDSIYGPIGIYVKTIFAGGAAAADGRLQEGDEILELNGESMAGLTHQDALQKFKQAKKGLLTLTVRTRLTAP
# Assay: holdup assay
# Design: key: below the threshold = too weak to quantify, mostly under pKd 3.1 to 4
# Conditions: plain residues with an end cap or a label only (N-terminal biotin on a linker: ado-ado)
row,pKd,Binder
1,below the threshold,B1

# Target: T9, SNTG1, Q9NSN8
# Assay: holdup assay
# Design: key: below the threshold = too weak to quantify, mostly under pKd 3.1 to 4
# Conditions: plain residues with an end cap or a label only (N-terminal biotin on a linker: ado-ado)
row,pKd,Binder
1,below the threshold,B1

# Target: GORASP2, Q9H8Y8
# Assay: holdup assay
# Design: key: below the threshold = too weak to quantify, mostly under pKd 3.1 to 4
# Conditions: plain residues with an end cap or a label only (N-terminal biotin on a linker: ado-ado)
row,pKd,Binder
1,below the threshold,B1

# Target: SCRIB_1, Q14160
# Sequence (Q14160 718-814): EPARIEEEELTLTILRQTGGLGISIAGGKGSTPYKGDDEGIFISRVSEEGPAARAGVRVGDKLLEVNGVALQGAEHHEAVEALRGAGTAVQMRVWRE
# Assay: holdup assay
# Design: key: below the threshold = too weak to quantify, mostly under pKd 3.1 to 4
# Conditions: plain residues with an end cap or a label only (N-terminal biotin on a linker: ado-ado)
row,pKd,Binder
1,4.31,B1

# Target: T10, SNTG2, Q9NY99
# Assay: holdup assay
# Design: key: below the threshold = too weak to quantify, mostly under pKd 3.1 to 4
# Conditions: plain residues with an end cap or a label only (N-terminal biotin on a linker: ado-ado)
row,pKd,Binder
1,below the threshold,B1

# Target: DLG5_1, Q8TDM6
# Sequence (Q8TDM6 617-713): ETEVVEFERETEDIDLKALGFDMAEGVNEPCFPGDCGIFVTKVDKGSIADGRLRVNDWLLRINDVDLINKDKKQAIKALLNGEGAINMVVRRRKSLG
# Assay: holdup assay
# Design: key: below the threshold = too weak to quantify, mostly under pKd 3.1 to 4
# Conditions: plain residues with an end cap or a label only (N-terminal biotin on a linker: ado-ado)
row,pKd,Binder
1,below the threshold,B1

# Target: PARD3_3, Q8TEW0
# Sequence (Q8TEW0 582-685): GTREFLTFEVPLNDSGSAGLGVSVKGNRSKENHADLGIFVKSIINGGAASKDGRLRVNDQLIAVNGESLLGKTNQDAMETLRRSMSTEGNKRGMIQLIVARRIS
# Assay: holdup assay
# Design: key: below the threshold = too weak to quantify, mostly under pKd 3.1 to 4
# Conditions: plain residues with an end cap or a label only (N-terminal biotin on a linker: ado-ado)
row,pKd,Binder
1,below the threshold,B1

# Target: GRIP2_5, Q9C0E4
# Sequence (Q9C0E4 544-642): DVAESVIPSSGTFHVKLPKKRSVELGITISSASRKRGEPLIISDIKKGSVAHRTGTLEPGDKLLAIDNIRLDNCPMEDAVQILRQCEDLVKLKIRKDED
# Assay: holdup assay
# Design: key: below the threshold = too weak to quantify, mostly under pKd 3.1 to 4
# Conditions: plain residues with an end cap or a label only (N-terminal biotin on a linker: ado-ado)
row,pKd,Binder
1,below the threshold,B1

# Target: T11, TIAM2, Q8IVF5
# Assay: holdup assay
# Design: key: below the threshold = too weak to quantify, mostly under pKd 3.1 to 4
# Conditions: plain residues with an end cap or a label only (N-terminal biotin on a linker: ado-ado)
row,pKd,Binder
1,below the threshold,B1

# Target: T12, DFNB31_1, Q9P202
# Assay: holdup assay
# Design: key: below the threshold = too weak to quantify, mostly under pKd 3.1 to 4
# Conditions: plain residues with an end cap or a label only (N-terminal biotin on a linker: ado-ado)
row,pKd,Binder
1,below the threshold,B1

# Target: FRMPD2_3, Q68DX3
# Sequence (Q68DX3 1073-1166): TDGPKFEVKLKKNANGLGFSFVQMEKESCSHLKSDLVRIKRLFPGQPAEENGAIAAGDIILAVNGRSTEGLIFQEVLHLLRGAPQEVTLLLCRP
# Assay: holdup assay
# Design: key: below the threshold = too weak to quantify, mostly under pKd 3.1 to 4
# Conditions: plain residues with an end cap or a label only (N-terminal biotin on a linker: ado-ado)
row,pKd,Binder
1,below the threshold,B1

# Target: T13, DLG3_3, Q92796
# Assay: holdup assay
# Design: key: below the threshold = too weak to quantify, mostly under pKd 3.1 to 4
# Conditions: plain residues with an end cap or a label only (N-terminal biotin on a linker: ado-ado)
row,pKd,Binder
1,below the threshold,B1

# Target: LIMK2, P53671
# Sequence (P53671 143-248): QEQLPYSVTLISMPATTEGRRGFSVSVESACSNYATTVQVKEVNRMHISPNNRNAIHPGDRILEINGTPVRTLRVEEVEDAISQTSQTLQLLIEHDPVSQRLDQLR
# Assay: holdup assay
# Design: key: below the threshold = too weak to quantify, mostly under pKd 3.1 to 4
# Conditions: plain residues with an end cap or a label only (N-terminal biotin on a linker: ado-ado)
row,pKd,Binder
1,below the threshold,B1

# Target: Inadl_8, Q8NI35
# Sequence (Q8NI35 1425-1530): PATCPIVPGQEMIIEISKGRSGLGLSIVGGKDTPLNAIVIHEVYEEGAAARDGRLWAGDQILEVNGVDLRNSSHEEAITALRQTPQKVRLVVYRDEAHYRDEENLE
# Assay: holdup assay
# Design: key: below the threshold = too weak to quantify, mostly under pKd 3.1 to 4
# Conditions: plain residues with an end cap or a label only (N-terminal biotin on a linker: ado-ado)
row,pKd,Binder
1,below the threshold,B1
